From PMC6995525, “Structure of the PUB Domain from Ubiquitin Regulatory X Domain Protein 1 (UBXD1) and Its Interaction with the p97 AAA+ ATPase” (Biomolecules, 2019)
“Also recorded” adds a separate entry of the source.

B1: N201D: UBXD1-PUB point mutant (protein)
chain: STDPVAASIMKIYTFNKDQDRVKLGVDTIAKYLDNIHLHPEEEKYRKIKLQDKVFQERINCLEGTHEFFEAIGFQKVLLPAQDQEDPEEFYVLSETTLAQPQSLERHKEQLLAAE
modifications: left off: His6, N-terminal, cleaved
notes: UBXD1-PUB point mutant
B2: Y194F: UBXD1-PUB point mutant (protein)
chain: STDPVAASIMKIYTFNKDQDRVKLGVDTIAKYLDNIHLHPEEEKFRKIKLQNKVFQERINCLEGTHEFFEAIGFQKVLLPAQDQEDPEEFYVLSETTLAQPQSLERHKEQLLAAE
modifications: left off: His6, N-terminal, cleaved
notes: UBXD1-PUB point mutant
B3: K193E: UBXD1-PUB point mutant (protein)
chain: STDPVAASIMKIYTFNKDQDRVKLGVDTIAKYLDNIHLHPEEEEYRKIKLQNKVFQERINCLEGTHEFFEAIGFQKVLLPAQDQEDPEEFYVLSETTLAQPQSLERHKEQLLAAE
modifications: left off: His6, N-terminal, cleaved
notes: UBXD1-PUB point mutant
B4: Y181A: UBXD1-PUB point mutant (protein)
chain: STDPVAASIMKIYTFNKDQDRVKLGVDTIAKALDNIHLHPEEEKYRKIKLQNKVFQERINCLEGTHEFFEAIGFQKVLLPAQDQEDPEEFYVLSETTLAQPQSLERHKEQLLAAE
modifications: left off: His6, N-terminal, cleaved
notes: UBXD1-PUB point mutant
B5: Y194A: UBXD1-PUB point mutant (protein)
chain: STDPVAASIMKIYTFNKDQDRVKLGVDTIAKYLDNIHLHPEEEKARKIKLQNKVFQERINCLEGTHEFFEAIGFQKVLLPAQDQEDPEEFYVLSETTLAQPQSLERHKEQLLAAE
modifications: left off: His6, N-terminal, cleaved
notes: UBXD1-PUB point mutant
B6: N201A: UBXD1-PUB point mutant (protein)
chain: STDPVAASIMKIYTFNKDQDRVKLGVDTIAKYLDNIHLHPEEEKYRKIKLQAKVFQERINCLEGTHEFFEAIGFQKVLLPAQDQEDPEEFYVLSETTLAQPQSLERHKEQLLAAE
modifications: left off: His6, N-terminal, cleaved
notes: UBXD1-PUB point mutant
B7: R207E: UBXD1-PUB point mutant (protein)
chain: STDPVAASIMKIYTFNKDQDRVKLGVDTIAKYLDNIHLHPEEEKYRKIKLQNKVFQEEINCLEGTHEFFEAIGFQKVLLPAQDQEDPEEFYVLSETTLAQPQSLERHKEQLLAAE
modifications: left off: His6, N-terminal, cleaved
notes: UBXD1-PUB point mutant
B8: N184A: UBXD1-PUB point mutant (protein)
chain: STDPVAASIMKIYTFNKDQDRVKLGVDTIAKYLDAIHLHPEEEKYRKIKLQNKVFQERINCLEGTHEFFEAIGFQKVLLPAQDQEDPEEFYVLSETTLAQPQSLERHKEQLLAAE
modifications: left off: His6, N-terminal, cleaved
notes: UBXD1-PUB point mutant
B9: V203A: UBXD1-PUB point mutant (protein)
chain: STDPVAASIMKIYTFNKDQDRVKLGVDTIAKYLDNIHLHPEEEKYRKIKLQNKAFQERINCLEGTHEFFEAIGFQKVLLPAQDQEDPEEFYVLSETTLAQPQSLERHKEQLLAAE
modifications: left off: His6, N-terminal, cleaved
notes: UBXD1-PUB point mutant
B10: wild type (wt): N-terminal hexahistidine-tagged UBXD1-PUB (150–264), tag cleaved with thrombin (protein)
chain: STDPVAASIMKIYTFNKDQDRVKLGVDTIAKYLDNIHLHPEEEKYRKIKLQNKVFQERINCLEGTHEFFEAIGFQKVLLPAQDQEDPEEFYVLSETTLAQPQSLERHKEQLLAAE
modifications: left off: His6, N-terminal, cleaved
notes: N-terminal hexahistidine-tagged UBXD1-PUB (150–264), tag cleaved with thrombin
B11: E206R: UBXD1-PUB point mutant (protein)
chain: STDPVAASIMKIYTFNKDQDRVKLGVDTIAKYLDNIHLHPEEEKYRKIKLQNKVFQRRINCLEGTHEFFEAIGFQKVLLPAQDQEDPEEFYVLSETTLAQPQSLERHKEQLLAAE
modifications: left off: His6, N-terminal, cleaved
notes: UBXD1-PUB point mutant
B12: Y181F: UBXD1-PUB point mutant (protein)
chain: STDPVAASIMKIYTFNKDQDRVKLGVDTIAKFLDNIHLHPEEEKYRKIKLQNKVFQERINCLEGTHEFFEAIGFQKVLLPAQDQEDPEEFYVLSETTLAQPQSLERHKEQLLAAE
modifications: left off: His6, N-terminal, cleaved
notes: UBXD1-PUB point mutant
B13: Q200A: UBXD1-PUB point mutant (protein)
chain: STDPVAASIMKIYTFNKDQDRVKLGVDTIAKYLDNIHLHPEEEKYRKIKLANKVFQERINCLEGTHEFFEAIGFQKVLLPAQDQEDPEEFYVLSETTLAQPQSLERHKEQLLAAE
modifications: left off: His6, N-terminal, cleaved
notes: UBXD1-PUB point mutant
B14: K198E: UBXD1-PUB point mutant (protein)
chain: STDPVAASIMKIYTFNKDQDRVKLGVDTIAKYLDNIHLHPEEEKYRKIELQNKVFQERINCLEGTHEFFEAIGFQKVLLPAQDQEDPEEFYVLSETTLAQPQSLERHKEQLLAAE
modifications: left off: His6, N-terminal, cleaved
notes: UBXD1-PUB point mutant
B15: N184D: UBXD1-PUB point mutant (protein)
chain: STDPVAASIMKIYTFNKDQDRVKLGVDTIAKYLDDIHLHPEEEKYRKIKLQNKVFQERINCLEGTHEFFEAIGFQKVLLPAQDQEDPEEFYVLSETTLAQPQSLERHKEQLLAAE
modifications: left off: His6, N-terminal, cleaved
notes: UBXD1-PUB point mutant
B16: PNGase K50A, Y51A double mutant: PNGase double mutant (protein, UniProt Q96IV0 2-654, looked up, variant K50A Y51A)
Peptide-N(4)-(N-acetyl-beta-gl …: AAAALGSSSGSASPAVAELCQNTPETFLEASKLLLTYADNILRNPNDEAARSIRIGNTAFSTRLLPVRGAVECLFEMGFEEGETHLIFPKKASVEQLQKIRDLIAIERSSRLDGSNKSHKVKSSQQPAASTQLPTTPSSNPSGLNQHTRNRQGQSSDPPSASTVAADSAILEVLQSNIQHVLVYENPALQEKALACIPVQELKRKSQEKLSRARKLDKGINISDEDFLLLELLHWFKEEFFHWVNNVLCSKCGGQTRSRDRSLLPSDDELKWGAKEVEDHYCDACQFSNRFPRYNNPEKLLETRCGRCGEWANCFTLCCRAVGFEARYVWDYTDHVWTEVYSPSQQRWLHCDACEDVCDKPLLYEIGWGKKLSYVIAFSKDEVVDVTWRYSCKHEEVIARRTKVKEALLRDTINGLNKQRQLFLSENRRKELLQRIIVELVEFISPKTPKPGELGGRISGSVAWRVARGEMGLQRKETLFIPCENEKISKQLHLCYNIVKDRYVRVSNNNQTISGWENGVWKMESIFRKVETDWHMVYLARKEGSSFAYISWKFECGSVGLKVDSISIRTSSQTFQTGTVEWKLRSDTAQVELTGDNSLHSYADFSGATEVILEAELSRGDGDVAWQHTQLFRQSLNDHEENCLEIIIKFSDL

Key:
p97-C10 peptide = test: Fluorescence anisotropy, UBXD1-PUB constructs titrated to 5,6-FAM labeled p97-C10 peptide; type: binding; conditions: for Kd: UBXD1-PUB (150–264) mutants titrated to 5,6-FAM labeled p97-C10 peptide (100 nM), 50 mM NaKPi, pH 6.5, 25 °C, fluorescence anisotropy ex 495/em 518 nm, fit of averaged triplicates ± standard deviation of the fit; for change in p97 binding affinity versus wild type, in words / fold change in KD / affinity versus wild type: UBXD1-PUB mutant vs wt, p97-C10, fluorescence anisotropy
From the text: N-terminal hexahistidine-tagged UBXD1-PUB (150–264) was cloned into a pET28a expression vector using the NdeI and HindIII restriction sites. UBXD1 point mutants were produced by site-directed mutagenesis following the Quikchange protocol (Agilent Technologies).
Unlabeled p97-C10 ([…]), p97-C13 ([…]), and phosphorylated p97-C13 ([…]pYG) peptides for NMR and ITC as well as 5,6-FAM-labeled peptides for fluorescence studies were purchased from Caslo ApS (Denmark).
(§1) Fluorescence anisotropy measurements (excitation: 495 nm; emission 518 nm) were carried out on a JASCO FP-8300 fluorescence spectrometer in 50 mM NaKPi, pH 6.5 at 25 °C, titrating PUB constructs to 5,6-FAM labeled p97-C10 peptide (100 nM). All titrations were performed in triplicate. Binding curves of the averaged data were fitted with GraphPad Prism 5.0 (GraphPad) using the quadratic binding equation for a one-site specific binding model:(3) r=r0+rmax⋅(F+x+KD)−(F+x+KD)^2−4⋅x⋅F/2⋅F, with r = anisotropy, r0 = anisotropy without protein, rmax = maximum anisotropy, F = fluorescent probe (labeled peptide or protein) concentration, x = titrant protein concentration, and KD = dissociation constant.
(§2) Data points are shown as means ± standard deviation based on the three experiments. KD values are given as fit of the averaged data points ± standard deviation of the fit.

[1] = CD spectroscopy, secondary structure composition; type: physicochemical; conditions: 0.15 mg/mL protein, 50 mM NaKPi pH 6.5, 25 °C; for α-helical content: 25 scans averaged, DichroWeb CDSSTR
Method: CD spectra were recorded on a Jasco J-170 CD spectrometer in a 1 mm quartz cuvette at 25 °C averaging 25 scans. Samples consisted of 0.15 mg/mL protein in 50 mM NaKPi, pH 6.5. The secondary structure composition was analyzed using DichroWeb (http://dichroweb.cryst.bbk.ac.uk) employing the CDSSTR algorithm.

full-length p97 (p97-fl) = test: Fluorescence anisotropy, UBXD1-PUB with full-length p97; type: binding; conditions: isolated PUB domain of UBXD1
Method: as §1, §2

p97 = conditions: qualitative pulldown; ref [29]; cited from earlier work
From the text: The PIM binding pockets of UBXD1-PUB and its closest homologue PNGase-PUB and the position of the p97-PIM peptide inside the pocket are almost identical, with small differences (Figure 6 and Figure 7). The side chains of the conserved UBXD1-Y181 and PNGase-Y38 are in the same position, stacking with p97-Y805 and forming a putative H-bond (3.2 or 3.1 Å, respectively) to the backbone carbonyl of p97-L804. UBDXD1-Y194 and PNGase-Y51, which represent the second conserved tyrosine of the PIM pocket, both stack with p97-Y805 and are only slightly shifted with respect to each other. However, the intr ...

Row | Molecule | Kd (p97-C10 peptide) [µM] | change in p97 binding affinity versus wild type, in words (p97-C10 peptide) | other results
1 | B1 | 280 ± 3 | largest decrease in binding affinity | –
2 | B2 | 141 ± 2 | largest decrease in binding affinity; also recorded: large decrease in affinity | α-helical content [1]: 50%
3 | B3 | 17.7 ± 0.4 | do not show a decreased affinity | –
4 | B4 | 111 ± 2 | largest decrease in binding affinity | –
5 | B5 | 53 ± 2 | large decrease in affinity | α-helical content [1]: 30%; folding / secondary structure, in words ([1]; compared with wild type): partial loss of secondary structure
6 | B6 | 64.1 ± 0.8 | – | fold change in KD / affinity versus wild type (p97-C10 peptide): 5 fold
7 | B7 | 88 ± 1 | – | fold change in KD / affinity versus wild type (p97-C10 peptide): six; fold change in KD / affinity versus wild type (p97-C10 peptide; listed as R207 to E): 6 fold
8 | B8 | 28.7 ± 0.5 | – | –
9 | B9 | 25.3 ± 0.5 | – | –
10 | B10 | 13.8 ± 0.3 | – | affinity for full-length p97 relative to isolated PIM peptides (full-length p97 (p97-fl)): same range as for the isolated PIM peptides; α-helical content [1]: 80%
11 | B11 | 39.4 ± 0.9 | – | –
12 | B12 | 28.4 ± 0.6 | – | –
13 | B13 | 8.3 ± 0.3 | do not show a decreased affinity | –
14 | B14 | 49.3 ± 0.8 | – | –
15 | B15 | 80 ± 2 | – | –
16 | B16 | – | – | binding in pulldown assay (p97): did not show impaired binding
